# In patent publication US7338938B2, “Methods for treating a patient undergoing chemotherapy” (University of Southern California, priority 1999, dated 2008):
# Entries after “also recorded” stand apart in the source; their conditions may differ. Non-standard residues stand in square brackets, D forms with d. No end group written: not given here. Phe(4-NH2) = Nc1ccc(C[C@H](N)C(=O)O)cc1
# Assays:
# [1] = test system: female C57B1/6 mice treated with 200 mg/kg cytoxan; details: 200 mg/kg cyclophosphamide i.v.
# [2] = test system: mice injected with 150 mg/kg 5FU intravenously (WBC, platelets, hemoglobin); test: Effect of angiotensin fragments and ACE inhibitor on recovery after chemotherapy (Example 4); type: in vivo; details: for relative effect on increase in WBC (ranking of active agents): throughout the experimental period
# Experimental: The next study was designed to test the effect of angiotensin peptides and the angiotensin converting enzyme inhibitor, enalapril, on recovery of white blood cells, platelets and hemoglobin after chemotherapy, as well as on granulocyte-macrophage colony forming units (GM-CFU) in the blood and bone marrow.
# Female […] mice (4 per group), 6-8 weeks old, were injected with 150 mg/kg 5FU intravenously. Administration of the peptides (AII (100 μg/kg/day), AII(1-7) (10 or 100 μg/kg/day), AII(1-5) (10 or 100 μg/kg/day), and AII(1-6) (100 μg/kg/day)), by subcutaneous injection, or enalapril (30 mg/kg/day) by oral gavage, was begun 2 days after administration of the antineoplastic and continued daily until 28 days after 5FU administration, at which time the mice were euthanized for evaluation of white blood cell numbers, platelets, hemoglobin levels and the number of GM-CFU in the bone marrow and peripheral blood. On days 7, 10, 14 and 21 after 5FU administration, blood was taken under anesthesia from the retro-orbital sinus to assess white blood cell number, platelet number, and hemoglobin levels.
# The mice were bled from the retro-orbital sinus at days 7, 10, 14 and 21. The mice were anesthetized with Metofane (an inhaled anesthesia). Approximately 150-200 μl of blood were obtained from the retro-orbital sinus with a heparinzed capillary tube. The blood was then placed in a 1.7 ml microfuge tube containing 10 mM EDTA and held on ice until further processing.
# One hundred μl of blood was pipetted into a centrifuge tube, to which 900 μl of distilled water was added. The blood and water were mixed by inversion and allowed incubate at 4° C. for 20 minutes. The tube was then centrifuged at 12000 rpm to precipitate the cellular debri for 20 to 30 minutes at room temperature. Twenty μl of the supernatant from this centrifugation was then added into triplicate wells of a 96 well plate containing 180 μl of distilled water. The optical density, was then read using a microplate reader at […].
# Twenty μl of blood was mixed with 200 μl of red blood cell (RBC) lysing solution (0.83% NH4Cl, 10 mM EDTA, 0.5% NaHCO3). The mixture was then incubated for 10 minutes at 4° C. After this incubation, the supernatant was removed and the pellet was resuspended in 100 μl of PBS. To this, 100 μl of 0.04% trypan blue was added. This mixture was vortexed and the number of WBC (baseline was approximately 10^7 cells/ml) was evaluated by hematocytometer under light microscopy and the number: of platelets (baseline was approximately 2.5×10^8 platelets/ml) was evaluated by hematocytometer under phase contrast microscopy.
# The blood was harvested by cardiac puncture on day 10 to assess mobilization of myeloid progenitors into the peripheral blood. The femurs and tibia were also collected and the bone marrow was harvested by flushing with PBS containing 2% fetal calf serum. After collection of the blood and bone marrow, the red blood cells were lysed with a hypotonic solution (described above), mixed with 0.04% trypan blue, and the number of nucleated cells assessed by hematocytometer under light microscopy. Aliquots of cells were then resuspended at 1×10^5 cells/ml (bone marrow) or 1×10^6 cells/ml Flood). […]
# [3] = test system: animals given intravenous 5FU (white blood cells, CFU-GM); test: Effect of AII on white blood cell mobilization and recovery after 5-fluorouracil (Example 1); type: in vivo, mice; details: AII 10 or 100 μg/kg/day s.c., started day -2, 0 or 2 relative to i.v. 5FU; day 7 or 14; all tissues tested (blood, spleen, thymus, bone marrow)
# Experimental: This study was designed to test the effect of AII on the recovery of white blood cells in lymphoid organs and on the level of granulocyte macrophage precursors (CFU-GM) in the blood (ie: mobilization), spleen (mobilization), and bone marrow (recovery) after intravenous administration of 5-fluorouracil (5FU). […] The number of white blood cells in each of the lymphoid organs, or the number of CFU-GM present in all the organs except the thymus were then assessed.
# [4] = test system: AT2 receptor; details: cited from earlier work
# [5] = Tests of AII fragments for effectiveness (method not described); details: test not specified
# [6] = test system: patients with newly diagnosed breast cancer receiving doxorubicin and cyclophosphamide
# [7] = filgrastim 5.0 μg/kg/day comparator arm
molecule,measurement,setting,value
"O=P1(N(CCCl)CCCl)NCCCO1 (stereo not shown) [cyclophosphamide, reference compound]",number of myeloid progenitors (GM-CFU) in the bone marrow after cyclophosphamide,[1],significantly reduced
"CCOC(=O)[C@H](CCc1ccccc1)N[C@@H](C)C(=O)N1CCC[C@H]1C(=O)O [enalapril, reference compound]",relative effect on increase in WBC (ranking of active agents),[2],least effective
Asp-Arg-Val-Tyr-Ile (DRVYI) [AII(1-5)],platelets after administration,[2]; after i.v. 5FU,increase in platelets
Asp-Arg-Val-Tyr-Ile-His-Pro-Phe (DRVYIHPF) [AII],white blood cell mobilization and/or recovery,[3],significantly enhanced
same,relative effect on increase in WBC (ranking of active agents),[2],most profound effect
Asp-Arg-Val-Tyr-Ile-Xaa-Pro-Phe (DRVYI[Phe(4-NH2)]PF) [(p-NH2-Phe)6-AII],affinity for AT2 relative to other receptor subtype,[4],100 times
same,binding characteristics in the experimental models tested,[4],comparable’ to AT2 antagonists
DRVYIH [AII(1-6)],relative effect on increase in WBC (ranking of active agents),[2],least effective
His-Pro-Phe (HPF) [AII(6-8)],effectiveness in tests,[5],not to be effective
Tyr-Ile-His-Pro-Phe (YIHPF) [AII(4-8)],effectiveness in tests,[5],not to be effective; also recorded: ineffective
"Filgrastim: recombinant G-CSF (NEUPOGEN, Amgen, Inc.), comparator arm (protein, UniProt P09919 31-207, looked up, filgrastim, N-terminal methionine) Granulocyte …: TPLGPASSLPQSFLLKCLEQVRKIQGDGAALQEKLVSECATYKLCHPEELVLLGHSLGIPWAPLSSCPSQALQLAGCLSQLHSGLFLYQGLLQALEGISPELGPTLDTLQLDVADFATTIWQQMEELGMAPALQPTQGAMPAFASAFQRRAGGVLVASHLQSFLEVSYRVLRHLAQP",Alopecia (frequency by treatment group),[6]; chemotherapy patients,40%
same,Anemia (frequency by treatment group),[6]; chemotherapy patients,60%
same,Fatigue (frequency by treatment group),[6]; chemotherapy patients,80%
same,Headache (frequency by treatment group),[6]; chemotherapy patients,60%
same,Myalgia/Muscle-skeletal pain (frequency by treatment group),[6]; chemotherapy patients,60%
same,Nausea (frequency by treatment group),[6]; chemotherapy patients,100%
same,Stomatitis (frequency by treatment group),[6]; chemotherapy patients,60%
same,Vomiting (frequency by treatment group),[6]; chemotherapy patients,60%
same,Toxicity: ANC < 1000/μl (frequency),[6]; [7],40%
same,Toxicity: Hgb < 10 gm/dl (frequency),[6]; [7],60%
same,Toxicity: Lymph < 500/μl (frequency),[6]; [7],80%
same,Toxicity: Platelet < 80 K/μl (frequency),[6]; [7],60%
same,Toxicity: WBC < 2000/μl (frequency),[6]; [7],60%
same,frequency of grade 3-4 neutropenia,[6]; filgrastim compared to AII(1-7),lower frequency
same,change in platelet number,"[6]; patients that received filgrastim, more pronounced in subsequent cycles",time dependent decrease in platelet number
